Experimental data reported in paper doi:10.1101/2021.12.22.473891 (bioRxiv, 2021).

Target: recombinant human Top2a ΔC (1-1217), lacking the unstructured C-terminal domain (human, UniProt P11388 1-1217)
Test: native gel or EMSA

Chain of recombinant human Top2a ΔC (1-1217), lacking the unstructured C-terminal domain (P11388 1-1217, stated change not applied): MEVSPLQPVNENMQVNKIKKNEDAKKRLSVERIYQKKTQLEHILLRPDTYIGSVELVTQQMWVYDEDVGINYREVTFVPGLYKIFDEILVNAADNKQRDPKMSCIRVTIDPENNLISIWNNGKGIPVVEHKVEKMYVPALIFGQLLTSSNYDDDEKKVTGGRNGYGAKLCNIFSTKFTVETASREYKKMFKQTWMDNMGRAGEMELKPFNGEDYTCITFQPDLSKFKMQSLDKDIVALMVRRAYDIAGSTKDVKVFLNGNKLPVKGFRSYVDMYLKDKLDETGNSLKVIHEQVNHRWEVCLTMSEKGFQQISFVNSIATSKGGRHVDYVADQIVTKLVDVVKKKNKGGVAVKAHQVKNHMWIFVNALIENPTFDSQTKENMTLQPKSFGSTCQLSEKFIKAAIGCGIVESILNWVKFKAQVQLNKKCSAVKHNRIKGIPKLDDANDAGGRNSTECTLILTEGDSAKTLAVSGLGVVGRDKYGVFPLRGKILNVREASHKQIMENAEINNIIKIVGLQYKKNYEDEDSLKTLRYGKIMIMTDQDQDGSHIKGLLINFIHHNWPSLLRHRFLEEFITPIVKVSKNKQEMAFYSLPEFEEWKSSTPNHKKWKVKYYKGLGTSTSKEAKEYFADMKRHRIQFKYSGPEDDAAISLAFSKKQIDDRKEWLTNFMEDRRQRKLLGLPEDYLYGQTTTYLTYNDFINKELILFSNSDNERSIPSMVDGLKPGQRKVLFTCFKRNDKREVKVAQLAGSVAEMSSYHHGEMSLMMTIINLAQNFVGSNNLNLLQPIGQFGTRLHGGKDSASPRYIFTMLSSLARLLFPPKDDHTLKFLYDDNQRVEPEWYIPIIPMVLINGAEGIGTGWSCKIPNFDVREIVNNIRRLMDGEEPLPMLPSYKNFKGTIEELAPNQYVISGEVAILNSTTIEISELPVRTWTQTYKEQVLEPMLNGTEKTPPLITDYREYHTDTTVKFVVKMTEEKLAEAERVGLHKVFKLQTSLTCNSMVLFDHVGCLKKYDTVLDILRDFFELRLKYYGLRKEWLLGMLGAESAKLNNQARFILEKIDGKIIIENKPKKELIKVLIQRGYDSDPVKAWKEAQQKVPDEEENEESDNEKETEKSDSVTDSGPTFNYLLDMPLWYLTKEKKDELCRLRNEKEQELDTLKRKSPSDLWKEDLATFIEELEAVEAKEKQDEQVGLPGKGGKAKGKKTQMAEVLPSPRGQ

B1: human dock II domain, full-length variant (RPA1^1060-1155) with C-terminal His-MBP-tag (domain or fragment)
chain: ADPKKALHHFRAIKKWQSKHPNTLLRRGAFLSYSQKIQEAVKALKLESENRNGRSPGTQEMLRMWYELDEESRRKYQKKAAACPDPSLSVWRPDIY
- binding result: binds
